Experimental data reported in patent US20250163449A1, “HERBICIDE-TOLERANT GENES AND METHOD FOR USING SAME” (QINGDAO KINGAGROOT CHEMICAL COMPOUND CO., LTD., priority 2022, published 2025).

B1: SEQ ID NO: 38: RdpA mutant L82H + V187L + F182W + R104G (protein)
chain: MHAALSPLSQRFERIAVQPLTGVLGAEITGVDLREPLDDSTWNEILDAFHTYQVIYFPGQAITNEQHIAFSRRFGPVDPVPHLKSIEGYPEVQMIRREANESGGVIGDDWHTDSTFLDAPPAAVVMRAIDVPEHGGDTGFLSMYTAWETLSPTMQATIEGLNVVHSATRVFGSLYQAQNRRWSNTSLKVMDVDAGDRETVHPLVVTHPGSGRKGLYVNQVYCQRIEGMTDAESKPLLQFLYEHATRFDFTCRVRWKKDQVLVWDNLCTMHRAVPDYAGKFRYLTRTTVGGVRPAR
B2: SEQ ID NO: 142: RdpA mutant L82H + V187L + F182W + R104G + T112S + R180Q (protein)
chain: MHAALSPLSQRFERIAVQPLTGVLGAEITGVDLREPLDDSTWNEILDAFHTYQVIYFPGQAITNEQHIAFSRRFGPVDPVPHLKSIEGYPEVQMIRREANESGGVIGDDWHSDSTFLDAPPAAVVMRAIDVPEHGGDTGFLSMYTAWETLSPTMQATIEGLNVVHSATRVFGSLYQAQNQRWSNTSLKVMDVDAGDRETVHPLVVTHPGSGRKGLYVNQVYCQRIEGMTDAESKPLLQFLYEHATRFDFTCRVRWKKDQVLVWDNLCTMHRAVPDYAGKFRYLTRTTVGGVRPAR
B3: SEQ ID NO: 82: RdpA mutant L82H + V187L + F182W + G103L + R180E (protein)
chain: MHAALSPLSQRFERIAVQPLTGVLGAEITGVDLREPLDDSTWNEILDAFHTYQVIYFPGQAITNEQHIAFSRRFGPVDPVPHLKSIEGYPEVQMIRREANESLRVIGDDWHTDSTFLDAPPAAVVMRAIDVPEHGGDTGFLSMYTAWETLSPTMQATIEGLNVVHSATRVFGSLYQAQNERWSNTSLKVMDVDAGDRETVHPLVVTHPGSGRKGLYVNQVYCQRIEGMTDAESKPLLQFLYEHATRFDFTCRVRWKKDQVLVWDNLCTMHRAVPDYAGKFRYLTRTTVGGVRPAR
B4: SEQ ID NO: 126: RdpA mutant L82H + V187L + F182W + R104G + T112S + R180K (protein)
chain: MHAALSPLSQRFERIAVQPLTGVLGAEITGVDLREPLDDSTWNEILDAFHTYQVIYFPGQAITNEQHIAFSRRFGPVDPVPHLKSIEGYPEVQMIRREANESGGVIGDDWHSDSTFLDAPPAAVVMRAIDVPEHGGDTGFLSMYTAWETLSPTMQATIEGLNVVHSATRVFGSLYQAQNKRWSNTSLKVMDVDAGDRETVHPLVVTHPGSGRKGLYVNQVYCQRIEGMTDAESKPLLQFLYEHATRFDFTCRVRWKKDQVLVWDNLCTMHRAVPDYAGKFRYLTRTTVGGVRPAR
B5: SEQ ID NO: 86: RdpA mutant L82H + V187L + F182W + G103L + R180S (protein)
chain: MHAALSPLSQRFERIAVQPLTGVLGAEITGVDLREPLDDSTWNEILDAFHTYQVIYFPGQAITNEQHIAFSRRFGPVDPVPHLKSIEGYPEVQMIRREANESLRVIGDDWHTDSTFLDAPPAAVVMRAIDVPEHGGDTGFLSMYTAWETLSPTMQATIEGLNVVHSATRVFGSLYQAQNSRWSNTSLKVMDVDAGDRETVHPLVVTHPGSGRKGLYVNQVYCQRIEGMTDAESKPLLQFLYEHATRFDFTCRVRWKKDQVLVWDNLCTMHRAVPDYAGKFRYLTRTTVGGVRPAR
B6: SEQ ID NO: 138: RdpA mutant L82H + V187L + F182W + G103L + R180T (protein)
chain: MHAALSPLSQRFERIAVQPLTGVLGAEITGVDLREPLDDSTWNEILDAFHTYQVIYFPGQAITNEQHIAFSRRFGPVDPVPHLKSIEGYPEVQMIRREANESLRVIGDDWHTDSTFLDAPPAAVVMRAIDVPEHGGDTGFLSMYTAWETLSPTMQATIEGLNVVHSATRVFGSLYQAQNTRWSNTSLKVMDVDAGDRETVHPLVVTHPGSGRKGLYVNQVYCQRIEGMTDAESKPLLQFLYEHATRFDFTCRVRWKKDQVLVWDNLCTMHRAVPDYAGKFRYLTRTTVGGVRPAR
B7: SEQ ID NO: 102: RdpA mutant L82H + V187L + F182W + G103L + T112A (protein)
chain: MHAALSPLSQRFERIAVQPLTGVLGAEITGVDLREPLDDSTWNEILDAFHTYQVIYFPGQAITNEQHIAFSRRFGPVDPVPHLKSIEGYPEVQMIRREANESLRVIGDDWHADSTFLDAPPAAVVMRAIDVPEHGGDTGFLSMYTAWETLSPTMQATIEGLNVVHSATRVFGSLYQAQNRRWSNTSLKVMDVDAGDRETVHPLVVTHPGSGRKGLYVNQVYCQRIEGMTDAESKPLLQFLYEHATRFDFTCRVRWKKDQVLVWDNLCTMHRAVPDYAGKFRYLTRTTVGGVRPAR

Tests used:
[1] = Conversion rate of substrate compound A by E. coli expressing each engineered protein (HPLC, oxygenase activity); format: biochemical
From the text: The high-throughput bacterial protein expression was achieved by cloning the synthesized gene that encodes each engineered protein into a bacterial expression vector with a C-terminal histidine tag (His-tag). The vectors were transformed into Escherichia coli (E. coli), and expression of the engineered proteins was induced. E. coli cultures were selected and cultured in centrifuge tubes overnight, meanwhile, added with substrates and IPTG, and the cultures were centrifuged to pellet the bacteria the next day. Alternatively, E. coli cultures were selected and cultured in centrifuge tubes overnight, and centrifuged to pellet the bacteria after adding substrates for reaction the next day. The supernatant of reaction solution was pipetted into a 96-well plate and the absorbance at 510 nm from 4-aminoantipyrine and potassium ferricyanide was measured by an endpoint colorimetric method to detect phenol products. Substrate reduction and product yield were measured by high performance liquid chromatography (HPLC) to detect the oxygenase activity (i.e., enzymatic activity) of the engineered proteins, and the activities of the proteins were compared by calculating conversion rates.
Conversion rate=(Peak area of initial substrate−Peak area of substrate after reaction)/Peak area of initial substrate*100%

[2] = Enzymatic kinetic measurements of purified proteins with compound A as substrate; format: biochemical; details: purified protein, compound A 0-1000 μM as substrate
Protocol: Based on the results of HPLC, representative engineered proteins were selected for protein purification. Further protein characterization, such as Km, Vmax and Kcat, was performed on the 8 engineered proteins from Table 2. Conventional Ni column affinity chromatography was used for protein purification and protein extract purity was assessed by SDS-PAGE analysis. After determining protein concentration by BCA method, enzyme activity was determined.

[3] = test system: rice (Jinjing 818); assay: Transgenic rice seedlings, compound B added to medium at rooting phase; format: in vivo; details: at least 1 μM compound B in medium (0.5 and 1 μM for SEQ ID NO: 42), 17-26 days
Protocol: Plant transformation vectors were constructed, each comprising a recombinant DNA molecule encoding an engineered protein (SEQ ID NO: 42/38/82/86/102/106/126/138/142) with the protein-coding sequence optimized for monocot expression, and rice (Jinjing 818) calli were transformed with these vectors using Agrobacterium tumifaciens and standard methods known in the art. Different concentrations of hormone herbicide compound B were added at the rooting phase of the rice seedlings to test hormone resistance, wherein, the test results of control Jinjing 818 plants and transgenic Jinjing 818 plants comprising the protein-coding gene of SEQ ID NO: 42 after adding 0.5 μM and 1 μM compound B to medium for 19 days are shown in FIG. 1. The test results of control Jinjing 818 plants and transgenic Jinjing 818 plants comprising the protein-coding genes of SEQ ID NO: 38/82/86/102/106/126/138/142 after adding 1 μM compound B to medium are shown in FIG. 5-11.

[4] = test system: rice (Jinjing 818); assay: Transgenic rice T0 plantlets in greenhouse sprayed with compound B; format: in vivo; details: medicated medium test and greenhouse spraying test for T0 generation, compound B
Protocol: Then, the obtained regenerated TO generation transgenic plantlets grew in the greenhouse, and were sprayed with compound B at the growth stage when approximately two leaves unfolded and the third one just appearing. Resistance levels of plants were recorded and evaluated after spraying treatment, wherein, the test results of control Jinjing 818 plants and transgenic Jinjing 818 plants comprising the protein-coding gene of SEQ ID NO: 42 after applying 20 g, 40 g, 60 g, 80 g, 100 g, 120 g/mu (1 mu=1/15 ha) compound B for corresponding days (DAT) are shown in FIG. 2.

[5] = test system: Arabidopsis thaliana; assay: T2 transgenic Arabidopsis thaliana seeds screened on compound A medium; format: in vivo; details: 0.15 μM compound A in medium, 11-24 days
From the text: Engineered proteins were selected for Arabidopsis thaliana transformation and plant analysis. DNA constructs were transformed into Arabidopsis thaliana using Agrobacterium tumifaciens and standard methods known in the art.
The transformed TO transgenic plantlets grew in the greenhouse. T1 generation Arabidopsis thaliana plant seeds produced by transformation of all constructs were collected after approximately 60 days of growth. Transgenic T1 generation Arabidopsis thaliana plants were screened by adding HYG to medium for T1 generation. T1 plants were selfed to produce seeds of T2 generation Arabidopsis thaliana plants. Wherein, compound A was added to medium to screen and test T2 generation Arabidopsis thaliana plant seeds, that were produced by all constructs, comprising unique events screened by T1 generation.

[6] = Reaction condition 2: bacteria cultured overnight, 8 times dose of substrate compound A of condition 1 added, react 3 hours the next day

Molecule	Conversion rate ([1]; Reaction condition 1: bacteria cultured overnight, substrate compound A and IPTG added to react overnight)	Kcat [2]	Km [2]	Vmax [2]	drug resistance (tolerance to compound B) compared with wild-type plants [3]	tolerance compared with the wild types (summary) [4]	Conversion rate [1, 6]	drug resistance compared with wild-type Arabidopsis thaliana (longer roots and larger leaves) [5]
B1	96.9%	0.43 S^−1	54.6 µM	49.9	exhibited better drug resistance	exhibited apparent tolerance	–	–
B2	–	–	–	–	exhibited better drug resistance	exhibited apparent tolerance	67%	exhibited better drug resistance
B3	–	–	–	–	exhibited better drug resistance	exhibited apparent tolerance	71.6%	exhibited better drug resistance
B4	–	–	–	–	exhibited better drug resistance	exhibited apparent tolerance	92.6%	exhibited better drug resistance
B5	–	–	–	–	exhibited better drug resistance	exhibited apparent tolerance	76.8%	exhibited better drug resistance
B6	–	–	–	–	exhibited better drug resistance	exhibited apparent tolerance	54.6%	exhibited better drug resistance
B7	–	–	–	–	exhibited better drug resistance	exhibited apparent tolerance	93.2%	exhibited better drug resistance
